Experimental data taken from US20160223545A1.

What was measured:
phosphorylated Villin [1] = target: T1, phosphorylated Villin (UniProt P09327); test: multiplate ELISA, P-Villin coated, GST-Jak3-G257 titrated, anti-GST detection
T1 sequence (tyrosine phosphorylated by expression in E. coli TKX1; sites not stated, looked up): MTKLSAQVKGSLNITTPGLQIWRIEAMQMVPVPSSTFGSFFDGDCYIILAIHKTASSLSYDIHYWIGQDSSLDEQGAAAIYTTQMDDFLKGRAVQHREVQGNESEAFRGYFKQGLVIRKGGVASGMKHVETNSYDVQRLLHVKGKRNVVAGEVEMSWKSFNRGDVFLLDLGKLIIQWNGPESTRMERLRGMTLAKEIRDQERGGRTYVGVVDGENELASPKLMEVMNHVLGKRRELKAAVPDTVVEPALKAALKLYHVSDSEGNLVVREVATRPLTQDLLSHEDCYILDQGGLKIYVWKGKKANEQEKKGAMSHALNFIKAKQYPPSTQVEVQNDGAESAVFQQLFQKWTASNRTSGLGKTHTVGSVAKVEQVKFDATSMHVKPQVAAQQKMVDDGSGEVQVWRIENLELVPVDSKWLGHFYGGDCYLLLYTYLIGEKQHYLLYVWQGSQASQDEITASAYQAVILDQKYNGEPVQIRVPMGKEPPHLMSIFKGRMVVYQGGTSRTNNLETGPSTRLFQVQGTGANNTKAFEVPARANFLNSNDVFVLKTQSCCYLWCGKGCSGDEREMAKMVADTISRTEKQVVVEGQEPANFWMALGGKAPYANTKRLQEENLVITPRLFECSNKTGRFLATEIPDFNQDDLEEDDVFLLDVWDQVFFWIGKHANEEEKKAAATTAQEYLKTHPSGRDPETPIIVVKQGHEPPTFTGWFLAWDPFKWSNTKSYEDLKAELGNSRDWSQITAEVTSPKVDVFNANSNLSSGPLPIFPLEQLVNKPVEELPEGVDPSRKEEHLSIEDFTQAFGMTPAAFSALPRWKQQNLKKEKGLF

phosphorylated Villin [2] = target: T1, phosphorylated Villin; test: multiplate ELISA, P-Villin coated, GST-P-Jak3 titrated, anti-GST detection, GST-alone control subtracted
[3] = target: phosphorylated adapter protein p52ShcA (UniProt P29353); test: multiplate ELISA, P-p52ShcA coated, GST-P-Jak3 titrated, anti-GST detection
[4] = target: phosphorylated adapter protein p52ShcA (UniProt P29353); test: multiplate ELISA, comparison of Kd values

| Substance | Kd (phosphorylated Villin [1]) | Kd (phosphorylated Villin [2]) | Kd [3] | fold weaker than P-Jak3 binding with P-Villin [4] |
| --- | --- | --- | --- | --- |
| GST-truncated Jak3 fusion protein lacking the JH1, JH2, JH3 and JH4 domains | 0.04 µM |  |  |  |
| phosphorylated GST-WT-Jak3 fusion protein (enzyme) |  | 0.023 µM | 0.22 µM | 10 fold |
